Laboratory results: patent publication US7612163B1, “Prokineticin 2β peptide and its use” (Janssen Pharmaceutica N.V., priority 2004, dated 2009)

Tests used:
PKR1 [1] = target: T1, PKR1 (Homo sapiens, UniProt Q8TCW9); experiment: Intracellular Ca2+ mobilization (FLIPR, Fluo-3) in PKR1 expressing HEK 293 cells; format: cell-based; design: The full-length cDNA coding regions for both PKR1 and PKR2 were PCR-amplified from human fetal brain cDNA; expressed in transfected cells; (transient, pCIneo)
Protocol: (§1) FIGS. 5A and 5B graphically illustrate that PKs stimulate Ca^2+ mobilization in HEK 293 cells expressing PKR1 or PKR2 at different potencies. HEK 293 cells transiently expressing PKR1 or PKR2 were seeded in 96-well plates, loaded with Ca^2+ dye Fluo-3 and then stimulated with different concentrations of PK1, PK2 or PK2β. The release of Ca^2+ was measured with a fluorescence imaging plate reader (FLIPR). The results are mean values (±S.E.M) of triplicate experiments. […] FIG. 5B provides the results for Ca^2+ mobilization in PKR2 expressing cells (legend: ▪, PK1; ▴, PK2; ▾, PK2β).
(§2) Intracellular Ca^2+ Mobilization Assays. PKR1 and PKR2 in the expression vector pCIneo (Promega) were transfected into HEK293 cells using LipofectAmine (Invitrogen). Two days after transfection, cells were detached using PBS containing 10 mM EDTA and seeded in poly-D-lysine coated 96-well black tissue culture plates (BD Biosciences).

PKR2 [2] = target: T2, PKR2 (Homo sapiens, UniProt Q8NFJ6); experiment: Intracellular Ca2+ mobilization (FLIPR, Fluo-3) in PKR2 expressing HEK 293 cells; format: cell-based; design: The full-length cDNA coding regions for both PKR1 and PKR2 were PCR-amplified from human fetal brain cDNA; expressed in transfected cells; (transient, pCIneo)
Protocol: as §1, §2

PKR1 [3] = target: T1, PKR1; experiment: Radioligand competition binding assay (125I-PK2-f), PKR1 expressing COS-7 cells; design: The full-length cDNA coding regions for both PKR1 and PKR2 were PCR-amplified from human fetal brain cDNA; expressed in transfected cells; host or cells: COS-7 (transient, pCIneo); settings: FIG. 4A
Protocol: (§3) FIGS. 4A and 4B graphically illustrate that PKs bind the PKR1 and PKR2 with different affinities. COS-7 cells transiently expressing PKR1 or PKR2 were seeded to 96-well plates. ^125I-labeled PK2-f was added to each well at a final concentration of 100 pM. Different concentrations of PK1, PK2 or PK2β were added to the assays as the competitors. All assays were performed in triplicates. The results are mean values (±S.E.M) of triplicates. FIG. 4A provides the results of the binding assay using PKR1 expressing cells.
(§4) Expression, purification, and iodination of C-terminal FLAG-tagged PK2. C-terminal FLAG-tagged PK2 (PK2-f) was constructed as described (Soga et al., 2002). Two primers P9: ATCGAGAATTCGCCACCATGAGGAGCCTGTGCTGCGCCC (SEQ.ID.NO.:11) and P10: GGATCCCTACTTATCGTCGTCATCCTTATAATCCTTTTGGGCTAAACA (SEQ.ID.NO.:12) were used to amplify human whole brain cDNA (Clontech). The PCR-amplified PK2-f was cloned into a mammalian expression vector pCMV-sport1 (Invitrogen). The resulting clones were sequenced to confirm the identities and transfected into COS-7 cells using LipofectAmine (Invitrogen). Three days after transfection, the cell culture supernatant was collected and run through an ANTI-FLAG M2 agarose (Sigma) affinity column. The column was washed with PBS and eluted with […] Glycine HCl, pH 3.0. The eluted protein fraction was immediately neutralized with 1 M Tris-HCl, pH 8.0 and then further purified by reverse-phase HPLC using a C4 column (Vydac). The purified recombinant PK2-f protein was iodinated using Iodogen reagent (Pierce, Rockford, Ill.) and ^125I-NaI (PerkinElmer, Boston, Mass.) as described by Pierce. The iodinated PK2-f was purified by a G-50 (Amersham Pharmacia Biotech) gel filtration column.
(§5) Radio-Ligand Binding Assays. PKR1 and PKR2 in the expression vector pCIneo (Promega) were transfected into COS-7 cells using LipofectAmine (Invitrogen). […] After the plates were washed three times with ice cold PBS, Microscint-40 (Packard, Meriden, Conn.) was added and the plates were counted on a Topcount (Packard).

PKR2 [4] = target: T2, PKR2; experiment: Radioligand competition binding assay (125I-PK2-f), PKR2 expressing COS-7 cells; design: The full-length cDNA coding regions for both PKR1 and PKR2 were PCR-amplified from human fetal brain cDNA; expressed in transfected cells; host or cells: COS-7 (transient, pCIneo); settings: FIG. 4B
Protocol: as §3, §4, §5

PKR2 [5] = target: T2, PKR2; experiment: cAMP accumulation (cAMP [125I] FlashPlate) in HEK 293 cells co-expressing PKR2/Gs; format: cell-based; design: The full-length cDNA coding regions for both PKR1 and PKR2 were PCR-amplified from human fetal brain cDNA; expressed in transfected cells; host or cells: HEK293 (transient, pCIneo, co-transfected with Gs plasmid); settings: FIG. 8C
Protocol: FIGS. 8B and 8C illustrate results from HEK 293 cells co-expressing PKR1/Gs (FIG. 8B) or PKR2/Gs (FIG. 8C) stimulated with different PKs at various concentrations (the accumulated cAMP was measured by a cAMP [^125I] FlashPlate Assay kit; the results are mean values (±S.E.M) of triplicate experiments (legend: ▪, PK1; ▴, PK2; ▾, PK2β)).
In a different experiment, PKR1 and PKR2 in the expression vector pCIneo (Promega) were co-transfected with the Gs expression plasmid into HEK293 cells using LipofectAmine (Invitrogen). Two days after transfection, cells were detached with 10 mM EDTA in PBS, resuspended in Dulbecco's Modified Eagle's Medium/F12 (DMEM/F12) media, and then plated on 96-well plates at a density of 50,000 cells per well. Two hours after the seeding, cells culture medium was replaced with DMEM/F12 containing 2 mM isobutylmethylxanthine (Sigma) and incubated for 30 min. Different concentrations of PK1, PK2 or PK2β were added to cells and incubated for an additional 30 min in a final volume of 200 μl/well. The reaction was stopped and cAMP was extracted by adding 20 μl of 0.5 N HCl to each well. Cell culture media were tested for cAMP concentrations by the cAMP [^125I] FlashPlate Assay kit (PerkinElmer) as described by the manufacturer.

T2 sequence (Q8NFJ6 whole entry): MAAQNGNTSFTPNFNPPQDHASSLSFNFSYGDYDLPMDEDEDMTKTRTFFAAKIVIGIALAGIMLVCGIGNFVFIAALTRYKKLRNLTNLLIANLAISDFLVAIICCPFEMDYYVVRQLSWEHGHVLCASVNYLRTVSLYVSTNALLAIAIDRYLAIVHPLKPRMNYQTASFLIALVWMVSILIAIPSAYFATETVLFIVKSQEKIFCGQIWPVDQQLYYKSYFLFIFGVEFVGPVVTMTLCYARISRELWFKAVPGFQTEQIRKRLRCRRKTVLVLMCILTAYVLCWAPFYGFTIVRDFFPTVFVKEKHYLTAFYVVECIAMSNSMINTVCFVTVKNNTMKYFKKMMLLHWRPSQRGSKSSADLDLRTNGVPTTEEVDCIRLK
T1 sequence (Q8TCW9 whole entry): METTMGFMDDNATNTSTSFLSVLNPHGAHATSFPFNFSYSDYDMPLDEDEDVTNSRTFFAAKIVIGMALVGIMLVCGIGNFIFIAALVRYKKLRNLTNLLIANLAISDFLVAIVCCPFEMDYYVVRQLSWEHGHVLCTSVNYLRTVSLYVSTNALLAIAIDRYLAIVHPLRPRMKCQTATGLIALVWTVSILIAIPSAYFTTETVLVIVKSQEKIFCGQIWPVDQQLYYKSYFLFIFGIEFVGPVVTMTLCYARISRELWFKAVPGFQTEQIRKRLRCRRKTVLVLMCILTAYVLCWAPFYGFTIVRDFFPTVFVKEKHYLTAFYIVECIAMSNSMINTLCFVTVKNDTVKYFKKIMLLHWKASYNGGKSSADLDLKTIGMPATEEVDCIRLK

AVITGACDKDSQCGGGMCCAVSIWVK SIRICTPMGKLGDSCHPLTRKNNFGNGRQE (AVITGACDKDSQCGGGMCCAVSIWVKSIRICTPMGKLGDSCHPLTRKNNFGNGRQE; listed as Homo sapiens) [PK2β, 56-amino acid mature peptide processed from PK2L pro-peptide by proteolytic (furin) cleavage; recombinant from COS-7 cells]
Agonist character at PKR1, in words (PKR1 [1]): potent full agonist | Receptor selectivity in Ca2+ mobilization, in words (PKR2 [2]; PKR1 versus PKR2, FIGS. 5A, 5B): only active at PKR1 | Ca2+ response potency in PKR2-expressing cells, fold less potent than PK1 and PK2 (PKR2 [2]; relative to PK1 and PK2): approximately 50 fold | Binding to PKR1, in words (PKR1 [3]): high affinities | Binding to PKR2, in words (PKR2 [4]): marginal active at high concentrations | cAMP accumulation in PKR2 expressing HEK293 cells, in words (PKR2 [5]): marginal activity at high concentrations
